Values of other authors, collected in PMC10461426.
Like-named read-outs stand apart in the source and are kept apart here. Blank lines part the entries; values can stand above or below the substance they belong to.

How the values were obtained:
IL-1R1 (Homo sapiens) [1] = target: IL-1R1 (Homo sapiens) (UniProt P14778)
IL-1R1 (Homo sapiens) [2] = target: IL-1R1 (Homo sapiens) (UniProt P14778); remark: listed apart in the source
IL-1R1 (Homo sapiens) [3] = target: IL-1R1 (Homo sapiens) (UniProt P14778); remark: listed apart in the source

Kd (IL-1R1 (Homo sapiens) [1]): 38 nM
Substance: IL-1Ra (from UniProt P18510)

Kd (IL-1R1 (Homo sapiens) [2]): 21 nM
Substance: IL-1beta (from UniProt P01584)

Kd (IL-1R1 (Homo sapiens) [3]): 93 nM
Substance: IL-38 (from UniProt Q8WWZ1)
